According to patent publication US20150344570A1 (published 2015):
Numbering of substitutions follows the chain as printed. Numbers in names are those of the source.

T1: FcgRIIaH (human, UniProt P12318 34-217)
T1 construct: extracellular domain; also called FcγRIIa H; FcgRIIa type H; not shown: His tag attached to the C terminus
T1 sequence (looked up): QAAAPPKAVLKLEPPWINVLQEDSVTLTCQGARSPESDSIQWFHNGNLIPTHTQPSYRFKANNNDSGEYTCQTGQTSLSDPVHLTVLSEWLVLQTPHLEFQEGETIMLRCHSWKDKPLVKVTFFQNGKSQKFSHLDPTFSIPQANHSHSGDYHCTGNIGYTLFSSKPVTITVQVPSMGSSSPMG

T2: FcgRIIb (human, UniProt P31994 43-217)
T2 construct: extracellular domain; also called FcγRIIb; 2b; not shown: His tag attached to the C terminus
T2 sequence (looked up): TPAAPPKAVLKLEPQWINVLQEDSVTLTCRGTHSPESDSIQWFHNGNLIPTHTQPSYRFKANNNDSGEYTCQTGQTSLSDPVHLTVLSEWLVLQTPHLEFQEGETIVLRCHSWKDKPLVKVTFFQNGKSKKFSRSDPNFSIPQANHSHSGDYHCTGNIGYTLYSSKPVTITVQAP

T3: FcgRIIaR (human, UniProt P12318 34-217)
T3 construct: extracellular domain; also called FcγRIIa R; FcgRIIa type R; not shown: His tag attached to the C terminus
T3 sequence (looked up): T1 sequence (looked up) with H134R

B1: H240-Kn189/H240-Hl068/L73-k0 (antibody, human IgG1, kappa)
heavy 1: QDQLVQSGAEVKKPGASVKVSCKASGFNIKDTYIQWVRQAPGQGLEWMGRIDPLRKQTKYREKFEGRVTITADTSTNTAYMELSSLRSEDTAVYYCVRSGREFDYWGQGTLVTVSSASTKGPSVFPLAPSSKSTSGGTAALGCLVKDYFPEPVTVSWNSGALTSGVHTFPAVLQSSGLYSLSSVVTVPSSSLGTQTYICNVNHKPSNTKVDKKVEPKSCDKTHTCPPCPAPESYWGPMVFLFPPKPKDTLMISRTPEVTCVVVDVSDEDPEVKFNWYVDGVEVHNAKTKPREEQYNATYRVVSVLTVLHQDWLNGKEYKCKVSNKDLPAPIEKTISKAKGQPREPQVCTLPPSRDELTKNQVSLWCLVKGFYPSDIAVEWESNGQPENNYKTTPPVLDSDGSFFLYSKLTVDKSRWQQGNVFSCSVMHEALHNHYTQKSLSLSP
heavy 2: QDQLVQSGAEVKKPGASVKVSCKASGFNIKDTYIQWVRQAPGQGLEWMGRIDPLRKQTKYREKFEGRVTITADTSTNTAYMELSSLRSEDTAVYYCVRSGREFDYWGQGTLVTVSSASTKGPSVFPLAPSSKSTSGGTAALGCLVKDYFPEPVTVSWNSGALTSGVHTFPAVLQSSGLYSLSSVVTVPSSSLGTQTYICNVNHKPSNTKVDKKVEPKSCDKTHTCPPCPAPELLGGPSVFLFPPKPKDTLMISRTPEVTCVVVDVSHEEPEVKFNWYVDGVEVHNAKTKPREEQYNSTYRVVSVLTVLHQDWLNGKEYKCKVSNDALPKPIEETISKAKGQPREPQVYTLPPSRCELTKNQVSLSCAVKGFYPSDIAVEWESNGQPENNYKTTPPVLDSDGSFFLVSKLTVDKSRWQQGNVFSCSVMHEALHNHYTQKSLSLSP
light: DIQMTQSPSSLSASVGDRVTITCRASQDIHKYIAWYQQKPGQAPRLLIQYTSTLQPGVPSRFSGSGSGTDYTFTISSLQPEDIATYYCLQYEQLRTFGGGTKVEIKRTVAAPSVFIFPPSDEQLKSGTASVVCLLNNFYPREAKVQWKVDNALQSGNSQESVTEQDSKDSTYSLSSTLTLSKADYEKHKVYACEVTHQGLSSPVTKSFNRGEC
notes: Anti-epiregulin heterodimerized IgG1, knobs-into-holes
B2: H240-Kn201/H240-Hl076/L73-k0 (antibody, human IgG1, kappa)
heavy 1: B1 heavy 1 with S233F, Y234Q, D269E, D326A
heavy 2: B1 heavy 2 with K329M
light: B1 light
notes: as for B1
B3: H240-Kn205/H240-Hl212/L73-k0 (antibody, human IgG1, kappa)
heavy 1: B1 heavy 1 with S233Y, Y234L, W235G, M238S, D267H, Y295W, A297C, D326A
heavy 2: B1 heavy 2 with S238D, E269D, D325K, K329A, E333V
light: B1 light
notes: Anti-epiregulin heterodimerized IgG1, knobs-into-holes; L234Y/Y296W/S298C in one H chain, S239D/K334V in the other
B4: H240-Kn203/H240-Hl068/L73-k0 (antibody, human IgG1, kappa)
heavy 1: B1 heavy 1 with S233F
heavy 2: B1 heavy 2
light: B1 light
notes: as for B1
B5: H240-Kn210/H240-Hl076/L73-k0 (antibody, human IgG1, kappa)
heavy 1: B1 heavy 1 with S233I, Y234Q, D269E, D326A
heavy 2: B1 heavy 2 with K329M
light: B1 light
notes: as for B1
B6: H240-Kn209/H240-Hl076/L73-k0 (antibody, human IgG1, kappa)
heavy 1: B1 heavy 1 with S233Q, Y234Q, D269E, D326A
heavy 2: B1 heavy 2 with K329M
light: B1 light
notes: as for B1
B7: H240-Kn199/H240-Hl068/L73-k0 (antibody, human IgG1, kappa)
heavy 1: B1 heavy 1 with S233L
heavy 2: B1 heavy 2
light: B1 light
notes: as for B1
B8: H240-Kn212/H240-Hl076/L73-k0 (antibody, human IgG1, kappa)
heavy 1: B1 heavy 1 with S233T, Y234Q, D269E, D326A
heavy 2: B1 heavy 2 with K329M
light: B1 light
notes: as for B1
B9: H240-Kn204/H240-Hl211/L73-k0 (antibody, human IgG1, kappa)
heavy 1: B1 heavy 1 with S233Y, Y234L, W235G, M238S, D267H, K289Y, Y295W, A297S, D326A
heavy 2: B1 heavy 2 with S238D, E269D, D325K, K329M, E333V
light: B1 light
notes: Anti-epiregulin heterodimerized IgG1, knobs-into-holes; L234Y/K290Y/Y296W in one H chain, S239D/A330M/K334V in the other
B10: H240-Kn208/H240-Hl076/L73-k0 (antibody, human IgG1, kappa)
heavy 1: B1 heavy 1 with S233D, Y234Q, D269E, D326A
heavy 2: B1 heavy 2 with K329M
light: B1 light
notes: as for B1
B11: H240-Kn211/H240-Hl076/L73-k0 (antibody, human IgG1, kappa)
heavy 1: B1 heavy 1 with S233M, Y234Q, D269E, D326A
heavy 2: B1 heavy 2 with K329M
light: B1 light
notes: as for B1
B12: H240-Kn207/H240-Hl076/L73-k0 (antibody, human IgG1, kappa)
heavy 1: B1 heavy 1 with S233V, Y234Q, D269E, D326A
heavy 2: B1 heavy 2 with K329M
light: B1 light
notes: as for B1
B13: H240-Kn198/H240-Hl076/L73-k0 (antibody, human IgG1, kappa)
heavy 1: B1 heavy 1 with S233L, Y234Q, D269E, D326A
heavy 2: B1 heavy 2 with K329M
light: B1 light
notes: as for B1
B14: H240-Kn202/H240-Hl076/L73-k0 (antibody, human IgG1, kappa)
heavy 1: B1 heavy 1 with S233E, Y234Q, D269E, D326A
heavy 2: B1 heavy 2 with K329M
light: B1 light
notes: as for B1
B15: H240-Kn200/H240-Hl076/L73-k0 (antibody, human IgG1, kappa)
heavy 1: B1 heavy 1 with Y234Q, D269E, D326A
heavy 2: B1 heavy 2 with K329M
light: B1 light
notes: as for B1

How the values were obtained:
Assay in all cases: SPR (Biacore); KD of H240-Kn033/H240-Hl033/L73-k0 divided by KD of this variant
FcgRIIIaV = target: T4, FcgRIIIaV (human, UniProt P08637 17-208)
T4 construct: extracellular domain; also called FcγRIIIa V; 3aV; not shown: His tag attached to the C terminus
T4 sequence (P08637 17-208 F176V limits assumed): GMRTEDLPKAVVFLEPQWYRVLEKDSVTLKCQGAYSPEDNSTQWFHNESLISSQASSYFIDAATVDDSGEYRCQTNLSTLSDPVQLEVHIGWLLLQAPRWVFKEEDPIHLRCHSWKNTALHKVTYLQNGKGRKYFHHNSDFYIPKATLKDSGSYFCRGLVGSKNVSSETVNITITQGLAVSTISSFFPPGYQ
Protocol: (§1) H240-Kn204/H240-Hl211/L73-k0 and H240-Kn205/H240-Hl212/L73-k0 were prepared according to the method of Reference Example 1, by combining H240-Kn204 as one of the H chains and L73-k0 as the L chains with H240-Hl211 as the other H chain, and by combining H240-Kn205 as one of the H chains and L73-k0 as the L chains with H240-Hl212 as the other H chain, and then expressing them. The binding of the prepared variants to FcgRIa, FcgRIIaR, FcgRIIaH, FcgRIIb, FcgRIIIaF, and FcgRIIIaV was measured according to the method of Reference Example 8.
(§2) “fold 2aR”, “fold 2aH”, “fold 2b”, “fold 3aF”, and “fold 3aV” show the relative binding activity of each variant to FcgRIIaR, FcgRIIaH, FcgRIIb, FcgRIIIaF, and FcgRIIIaV, respectively, when the binding activity of H240-Kn033/H240-Hl033/L73-k0, a variant produced by introducing only alterations that promote formation of a heterodimerized antibody into a native IgG1, is defined as 1. Specifically, they are values obtained by dividing the KD value of H240-Kn033/H240-Hl033/L73-k0 for each FcgR by the KD value of an individual variant for each FcgR.
(§3) Analysis of interaction between objective antibody and the FcγR was carried out using Biacore T100 (GE Healthcare), Biacore T200, Biacore A100, and Biacore 4000. HBS-EP+ (GE Healthcare) was used as the running buffer, and the measurement temperature was set to 25° C. Chips produced by immobilizing the antigen peptide by the amine coupling method to a Series S sensor Chip CM5 (GE Healthcare), chips produced by allowing preliminarily biotinylated antigen peptides to interact with and immobilize onto a Series S Sensor Chip SA (certified) (GE Healthcare), chips produced by immobilizing Protein L (ACTIGEN, BioVision) to Series S Sencor Chip CM5 (GE Healthcare), or chips produced by immobilizing Protein A/G (Thermo Scientific) to Series S Sencor Chip CM5 (GE Healthcare) were used. Antibodies of interest were captured onto these chips, and allowed to interact to each FcγR diluted with running buffer.

FcgRIIaH = target: T1, FcgRIIaH
Protocol: as §1, §2, §3

FcgRIIIaF = target: T5, FcgRIIIaF (human, UniProt P08637 17-208)
T5 construct: extracellular domain; also called FcγRIIIa F; 3aF; not shown: His tag attached to the C terminus
T5 sequence (P08637 17-208): as the sequence (P08637 17-208 F176V limits assumed) above, with V160F counted along it
Protocol: as §1, §2, §3

FcgRIIb = target: T2, FcgRIIb
Protocol: as §1, §2, §3

FcgRIIaR = target: T3, FcgRIIaR
Protocol: as §1, §2, §3

Row | Binder | fold 3aV (FcgRIIIaV) | fold 2aH (FcgRIIaH) | fold 3aF (FcgRIIIaF) | fold 2b (FcgRIIb) | fold 2aR (FcgRIIaR)
1 | B1 | 92.3 fold | 10.8 fold | 90.6 fold | 22 fold | 32.2 fold
2 | B2 | 133 fold | 3.7 fold | 161 fold | 0.6 fold | 1 fold
3 | B3 | 11.4 fold | 1.4 fold | 24.2 fold | 2.1 fold | 1.2 fold
4 | B4 | 63.2 fold | 10.6 fold | 85.3 fold | 12.2 fold | 16.1 fold
5 | B5 | 98 fold | 3.5 fold | 161 fold | 0.8 fold | 1.3 fold
6 | B6 | 77.4 fold | 2.1 fold | 121 fold | 0.4 fold | 0.6 fold
7 | B7 | 117 fold | 19.3 fold | 126 fold | 25.4 fold | 37 fold
8 | B8 | 82.8 fold | 2.3 fold | 138 fold | 0.6 fold | 1.2 fold
9 | B9 | 6.5 fold | 0.7 fold | 20.7 fold | 2.5 fold | 1.2 fold
10 | B10 | 120 fold | 1.7 fold | 161 fold | 1 fold | 1.5 fold
11 | B11 | 92.3 fold | 2.6 fold | 153 fold | 0.8 fold | 1.3 fold
12 | B12 | 98 fold | 3.1 fold | 153 fold | 0.6 fold | 1.1 fold
13 | B13 | 88.9 fold | 3.7 fold | 193 fold | 0.5 fold | 1.2 fold
14 | B14 | 126 fold | 1.4 fold | 181 fold | 0.8 fold | 1.2 fold
15 | B15 | 81.4 fold | 2.3 fold | 121 fold | 0.5 fold | 0.9 fold
